From article doi:10.1101/2025.08.15.670450 (2025)

Tests used:
GDM_VEGFA_54 [1] = test: BLI
VEGF-A_Binder_13 = test: BLI
VEGF-A Binder 13 [2] = test: BLI; KD1
VEGF-A Binder 13 [3] = test: BLI; KD2, second site
GDM_VEGFA_54 [4] = test: reported in original publication

Kd (GDM_VEGFA_54 [1]): 10.1 nM
Kd (VEGF-A_Binder_13): 13.4 nM
Kd (VEGF-A Binder 13 [2]): 26.4 nM
Kd (VEGF-A Binder 13 [3]): 86.4 nM
Kd (GDM_VEGFA_54 [4]): 0.48 nM
B1: Vascular Endothelial Growth Factor A (VEGF-A) (ligand)
chain: MTDRQTDTAPSPSYHLLPGRRRTVDAAASRGQGPEPAPGGGVEGVGARGVALKLFVQLLGCSRFGGAVVRAGEAEPSGAARSASSGREEPQPEEGEEEEEKEEERGPQWRLGARKPGSWTGEAAVCADSAPAARAPQALARASGRGGRVARRGAEESGPPHSPSRRGSASRAGPGRASETMNFLLSWVHWSLALLLYLHHAKWSQAAPMAEGGGQNHHEVVKFMDVYQRSYCHPIETLVDIFQEYPDEIEYIFKPSCVPLMRCGGCCNDEGLECVPTEESNITMQIMRIKPHQGQHIGEMSFLQHNKCECRPKKDRARQEKKSVRGKGKGQKRKRKKSRYKSWSVPCGPCSERRKHLFVQDPQTCKCSCKNTDSRCKARQLELNERTCRCDKPRR
